# Experiments:
# BV2 microglia = experiment: Western blot of PI3K phosphorylation in BV2 microglia; format: cell-based, mouse
# Description: For WB, mouse BV2 cell line was used in this study. It was purchased from ATCC (CRL-2469), and was cultured in DMEM (Thermo Fisher Scientific, Cat. No. 11885084) supplemented with 10% FBS at 37° C. with 5% C02. The medium was changed every 3 days. Cells were then seeded onto 6-well plates and stimulated with LPS (Sigma, Cat #L6529-1MG) for 6 hours and followed by IGFBPL1 (400 ng/ml, R&D system, 4130-BL) and/or IGF1 analog (10 uM, BACHEM, H-1356, Cat. No. 4018631) or NBI-31772 (10 μM, EMD Millipore, Cat. No. 479830). Cells were harvested 48 hrs for following western blotting.
# WB was performed as previously noted^29. Cell or tissue samples were sonicated in a cold RIPA buffer supplemented with a 1:100 FAST protease inhibitor (S8830, Sigma-Aldrich, St Louis, MO, USA). […] The total Protein concentration of resulting supernatants was determined using the Qubit 4 Fluorometer (Thermo Fisher Scientific, Waltham, MA, USA). […] Signals were developed with ECL using a Super Signal West Pico kit (Thermo Fisher Scientific, Waltham, MA, USA) and detected with iBright CL 1500 (Thermo Fisher Scientific, Waltham, MA, USA). […] All the quantification results were averaged from three protein blots and expressed as the mean ratio of the values (target protein/housekeeping protein)±standard deviation (SD). […]
# retinal microglia = experiment: Proteome profiler mouse cytokine array on supernatants of LPS-treated retinal microglial cultures; format: cell-based; conditions: IGFBPL1 400 ng/ml added 6 hr after LPS 1 μg/ml; total 48 hours
# Description: Retinal microglia isolation started from dissecting retinas out from CX3CR1/GFP mice. The single cell suspension was obtained followed by papain digestion (20 units; Worthington, Lk003150). Tap every 3-5 mins until completely digested and then add equal volume of inhibitor to neutralize the reaction. Then the supernatants were removed by centrifuge at 300 g for 8 mins. Resuspend retinal cell pellets from CX3CR1/GFP mice into cell staining buffer (BioLegend, 420201) with pacific blue anti-mouse CD11b primary antibody (Biolegend, 101224). […]
# As described above, microglial cells were sorted from CX3CR1/GFP mice as described above. […] The array membranes were imaged with iBright CL1500 imaging system (ThermoFisher Scientific, USA) and the results were analyzed using ImageJ software.
# To investigate if IGFBPL1 directly mediates microglial function, we studied gene profiling changes in isolated microglial cultures treated by IGFBPL1. Retinal microglia were purified from mice expressing green fluorescence protein (GFP) driven under a microglial specific promoter Cx3cr1 (Cx3cr1-Gfp) using fluorescence-activated cell sorting (FACS)^12. […] This effects of IGFBPL1 on suppressing microglial activation were verified by cytokine arrays, which measured 36 mouse pro-inflammatory cytokines, chemokines from supernatants of microglial cultures. […]
molecule,measurement,setting,value
"IGFBPL1: insulin-like growth factor binding protein like protein 1; recombinant protein (R&D system, 4130-BL) (protein) LGLRDAGRRHPECSPCQQDRCPAPSPCPAPWISARDECGCCARCLGAEGASCGGPVGSRCGPGLVCASRASGTAPEGTGLCVCAQRGAVCGSDGRSYSSICALRLRARHAPRAHHGHLHKARDGPCEFAPVVLMPPRDIHNVTGTQVFLSCEVKAVPTPVITWKKVKHSPEGTEGLEELPGDHVNIAVQVRGGPSDHETTSWILINPLRKEDEGVYHCHAANAIGEAQSHGTVTVLDLNRYKSLYSSVPGDLL",Increase in PI3K phosphorylation,BV2 microglia; IGFBPL1 added 6 hr after LPS challenge,8 fold
same,"PI3K signaling, individual treatment","BV2 microglia; IGFBPL1 alone, no LPS",did not alter PI3K signaling
same,"Reversal of LPS-induced inflammatory cytokines (cytokine array, 36 cytokines/chemokines)",retinal microglia,completely reverted the LPS-induced inflammatory cytokines to the control levels

# From US20250051458A1, “Methods for Treating Neurodegeneration Targeting IGF1/IGF1R” (The Schepens Eye Research Institute, Inc., priority 2021, published 2025)
